Here are results for 4 molecules from US20090181025A1 (published 2009).

In test [1] the target is T1, mouse TARM protein, isoform m1, expressed on B300.19 cells (mouse, UniProt B6A8R8 17-288).
T1 construct: In the co-immunoprecipitation the cells were solubilized in 1% digitonin; also called mTARM; mTARM-expressing cells
T1 sequence: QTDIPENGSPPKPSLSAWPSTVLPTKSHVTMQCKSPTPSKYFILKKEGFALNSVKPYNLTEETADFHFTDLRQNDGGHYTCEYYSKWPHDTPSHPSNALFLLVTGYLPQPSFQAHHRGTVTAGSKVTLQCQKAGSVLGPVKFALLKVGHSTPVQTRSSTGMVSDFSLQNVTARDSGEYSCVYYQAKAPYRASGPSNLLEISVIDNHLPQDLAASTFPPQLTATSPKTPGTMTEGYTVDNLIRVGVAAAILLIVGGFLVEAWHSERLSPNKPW
Nature of the test: co-immunoprecipitation from B300.19 transfectants (1% digitonin lysate): anti-Flag IP, immunoblot with anti-mTARM #6. The procedure:
B300.19 transfectants were solubilized in a cell lysis buffer containing 1% digitonin (1% digtonin/50 mM Tris-HCl (pH 7.5)/150 mM NaCl/5 mM NaF/1 mM orthovanadate/Complete™ (Roche)). Immunoprecipitation was carried out using an anti-Flag antibody, and immunoblot analysis was then carried out using anti-mTARM antibody #6.
On the technique in general: In western blotting, separated proteins are transferred to a membrane and probed.

For test [2], the target named is AP protein used as a negative control (human, UniProt P05187 23-511). Nature of the test: FACS of AP protein on mTARM-L-expressing B300.19 cells, detected with anti-PLAP antibody.
AP protein used as a negative control, sequence (P05187 23-511): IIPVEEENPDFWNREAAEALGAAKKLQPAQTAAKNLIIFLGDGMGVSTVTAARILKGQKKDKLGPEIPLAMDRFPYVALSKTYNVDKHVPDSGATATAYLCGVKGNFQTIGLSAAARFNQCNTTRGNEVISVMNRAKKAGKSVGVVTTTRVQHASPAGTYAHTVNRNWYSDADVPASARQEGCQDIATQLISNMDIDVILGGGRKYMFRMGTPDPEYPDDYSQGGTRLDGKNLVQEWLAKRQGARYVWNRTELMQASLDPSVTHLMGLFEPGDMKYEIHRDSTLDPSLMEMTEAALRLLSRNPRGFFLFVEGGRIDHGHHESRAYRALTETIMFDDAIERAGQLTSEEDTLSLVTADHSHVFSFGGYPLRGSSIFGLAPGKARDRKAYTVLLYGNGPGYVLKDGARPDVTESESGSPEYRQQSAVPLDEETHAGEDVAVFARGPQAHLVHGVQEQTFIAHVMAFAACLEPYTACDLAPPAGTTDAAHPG
Test [3] addresses T2, CD54 endogenous in bone marrow-derived mature dendritic cells (mouse, UniProt P13597 28-537).
T2 construct: Control membrane protein in the co-immunoprecipitation; also called another cell membrane protein CD54
The experiment in a line: co-immunoprecipitation from mature dendritic cells (1% digitonin lysate): anti-CD54 IP, immunoblot with anti-FcRγ chain antibody. The procedure: Moreover, bone marrow-derived mature dendritic cells were solubilized in a cell lysis buffer containing 1% digitonin. Immunoprecipitation was carried out using rat IgG as a negative control, anti-mTARM antibody #21, an anti-CD54 antibody and an anti-FcRγ chain antibody, and immunoblot analysis was then carried out using an anti-FcRγ chain antibody.

T2 sequence (P13597 28-537 limits assumed): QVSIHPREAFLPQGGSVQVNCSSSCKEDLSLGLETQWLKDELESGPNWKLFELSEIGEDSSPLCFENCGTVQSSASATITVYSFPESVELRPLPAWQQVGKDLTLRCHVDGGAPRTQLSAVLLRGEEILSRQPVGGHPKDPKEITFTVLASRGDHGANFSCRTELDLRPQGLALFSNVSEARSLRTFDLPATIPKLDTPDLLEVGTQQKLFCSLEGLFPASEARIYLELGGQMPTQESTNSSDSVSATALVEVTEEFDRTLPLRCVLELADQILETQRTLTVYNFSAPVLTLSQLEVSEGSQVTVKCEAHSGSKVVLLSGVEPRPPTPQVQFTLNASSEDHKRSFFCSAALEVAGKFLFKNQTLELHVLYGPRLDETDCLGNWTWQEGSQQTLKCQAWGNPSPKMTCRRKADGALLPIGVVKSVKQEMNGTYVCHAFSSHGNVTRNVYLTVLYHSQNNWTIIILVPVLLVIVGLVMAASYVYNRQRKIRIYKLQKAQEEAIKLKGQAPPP

B1: Flag tagged DAP10 expressed in B300.19 transfectants (other, UniProt Q9QUJ0 18-79, looked up)
chain: SQTSAGSCSGCGTLSLPLLAGLVAADAVMSLLIVGVVFVCMRPHGRPAQEDGRVYINMPGRG
notes: GenBank AF072846 is printed; The fragment limits are set only by the primers; not shown: N-terminal Flag tag from vector pMXII IRES-Puro
B1: in test [1], the binding result is reported as “no binding”.

B2: mouse TARM-L (TARM ligand) expressed on B300.19 cells (ligand)
chain: LEISADAHVRGYVGEKIKLKCTFKSSSDVTDKLTIDWTYRPPSSSRTESIFHYQSFQYPTTAGTFRDRISWAGNVYKGDASISISNPTLKDNGTFSCAVKNPPDVYHNIPLTELTVTERGFGTMLSSVALLSILVFVPSAVVVILLLVRMGRKATGVQKRSRSGYKKSSIEVSDDTDQEDSNDCMTRLCVRCAECLDSDYEEEAY
notes: also called mTARM-L; mTARM-L candidate
Regarding B2, the binding result in test [2] is listed as “no binding (tested: 30 µg/ml (method of Example 5))”.

B3: Flag tagged DAP12 expressed in B300.19 transfectants (other, UniProt O54885 22-114, looked up)
chain: LSPVQAQSDTFPRCDCSSVSPGVLAGIVLGDLVLTLLIALAVYSLGRLVSRGQGTAEGTRKQHIAETESPYQELQGQRPEVYSDLNTQRQYYR
notes: GenBank NM-011662 is printed; The fragment limits are set only by the primers; not shown: N-terminal Flag tag from vector pMXII IRES-Puro
Consider B3, for which, in test [1], the binding result is listed as “no binding”.

B4: FcRγ chain endogenous in bone marrow-derived mature dendritic cells (other, mouse, UniProt P20491 19-86, looked up)
chain: LGEPQLCYILDAVLFLYGIVLTLLYCRLKIQVRKAAIASREKADAVYTGLNTRSQETYETLKHEKPPQ
notes: Native protein from lysate of mouse dendritic cells
On to B4, for which the binding result in test [3] is on record as “no binding”.
